Experimental data taken from US20040086945A1, “Hairless protein-interacting partner complexes and methods thereto” (The Procter & Gamble Company, priority 2002, published 2004).

T1: mouse HRt (hairless protein aa 490-1182) (Mus musculus, UniProt Q61645)
T1 construct: HR cDNA corresponding to the C-terminal half of HR protein (aa residues 490 to 1182, hereinafter HRt); expressed in transfected cells; host or cells: Saccharomyces cerevisiae PJ69-2A transformed with BD-HRt plasmid, mated with Y187 carrying the human brain cDNA library in pACT2
T1 sequence (Q61645 490-1182): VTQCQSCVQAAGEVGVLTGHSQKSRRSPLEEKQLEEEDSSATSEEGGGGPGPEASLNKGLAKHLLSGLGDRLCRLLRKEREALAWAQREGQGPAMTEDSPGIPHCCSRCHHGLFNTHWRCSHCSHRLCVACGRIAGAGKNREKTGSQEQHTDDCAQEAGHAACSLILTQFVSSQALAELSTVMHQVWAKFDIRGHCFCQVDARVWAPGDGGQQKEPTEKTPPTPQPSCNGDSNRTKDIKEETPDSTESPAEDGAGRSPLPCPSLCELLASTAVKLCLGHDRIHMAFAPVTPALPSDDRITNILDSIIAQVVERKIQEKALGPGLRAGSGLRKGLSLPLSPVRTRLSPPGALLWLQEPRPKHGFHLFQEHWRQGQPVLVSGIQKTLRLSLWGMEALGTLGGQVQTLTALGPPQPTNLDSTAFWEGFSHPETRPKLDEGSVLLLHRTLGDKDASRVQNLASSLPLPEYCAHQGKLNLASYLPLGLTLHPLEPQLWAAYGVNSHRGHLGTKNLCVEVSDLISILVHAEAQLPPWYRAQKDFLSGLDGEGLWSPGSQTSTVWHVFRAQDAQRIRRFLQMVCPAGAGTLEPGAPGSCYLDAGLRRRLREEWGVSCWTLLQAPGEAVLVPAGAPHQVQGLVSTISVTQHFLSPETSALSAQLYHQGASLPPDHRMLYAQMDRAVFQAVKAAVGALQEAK

B1: Human CGI-106 protein: human HRt interacting partner, GenBank AF151864, SEQ ID NO:28/29 (protein, listed as Homo sapiens)
chain: DEDTEGFGVPRHDPLPDPLKVPPPLPDPSSICMVDPEMLPPKTARQTENVSRTRKPLARPNSRAAAPKATPVAAAKTKGLAGGDRASRPLSARSEPSEKGGRAPLSRKSSTPKTATRGPSGSASSRPGVSATPPKSPVYLDLAYLPSGSSAHLVDEEFFQRVRALCYVISGQDQRKEEGMRAVLDALLASKQHWDRDLQVTLIPTFDSVAMHTWYAETHAR
B2: Human sequence from clone RP4-753, chromosome 21q: human HRt interacting partner, GenBank AL031676, SEQ ID NO:12/13 (protein, listed as Homo sapiens)
chain: TRSSFRSEATPSEPVLVSVHLSVLPARVQPRGMDRARVAVAAGSLAPPVLPPPIQRLRGCSMFYVFLNEDPSDGSSPIPDSGSPSGPRAAPEHPARLPLT
B3: Human small intestine cDNA to mRNA clone HSI10987: human HRt interacting partner, GenBank AK026339, SEQ ID NO:24/25 (protein, listed as Homo sapiens)
chain: CPGRSQGPHCWDAGCSGAPQAQVPSVFSFDFAAVLVLLLYPQELTWTQILGPPWSASSSAFGSGKNSSRTFYSQRQSLSFLCPICISSRRDPP
B4: Human vesicle-associated membrane protein 2: human HRt interacting partner, GenBank BC002737, SEQ ID NO:22/23 (protein, listed as Homo sapiens)
chain: QGEGKGDGTGSYREGQGPRQQGGHQEAAAAATVCVASLPPPQHPRQLGLAPLPSLHCTLSLKINFQPCLLSTWWVVGMQFGICSTPST
B5: Human aldolase A: human HRt interacting partner, GenBank M11560, SEQ ID NO:26/27 (protein, listed as Homo sapiens)
chain: VSKAVEHINKTIAPALVSKKLNVTEQEKIDKLMIEMDGTENKSKFGANAILGVSLAVCKAGAVEKGVPLYRHIADLAGNSEVILPVPAFNVINGGFSCCNKLAMHEVHDPPSRCSKLQGSLRIGTE
B6: Human monocyte antigen CD14: human HRt interacting partner, GenBank M86511, SEQ ID NO:14/15 (protein, listed as Homo sapiens)
chain: KRINLISQTKRPDRNMSLSRACPCWNGLLTTIKNLELLLEIVTDKSQEGSQFVKGFGGIGGILRYRVDFQGMEYQGGDDEFFDLDDY

target: T1, mouse HRt (hairless protein aa 490-1182); test: Yeast two-hybrid screen of BD-HRt against human brain cDNA library in AD vector, lacZ coloration on QDO-Xgal plates; format: cell-based; details: BD-HRt(mouse) x human brain cDNA library in AD-vector
Excerpt: The present example provides for Hairless Protein (HR) interacting partners (HR-IP) using the yeast two-hybrid technology. […] Yeast cells expressing BD-HRt are mated with yeast cells pretransformed with human brain cDNA library in the activation domain (AD) vector.
Cloning of HRt into GAL4 binding domain (BD) yeast two-hybrid (Y2H) vector: The HRt insert from pET32a-HRt is excised as an Eco RI-Xho I fragment (there is a unique Xho I site just adjacent to HRt insert) and inserted at the Eco RI-Sal I sites of Y2H-BD vector pGBKT7 (Catalog No. K1612-B; a component of Matchmaker two-hybrid System 3 (Catalog No. K1612-1) BD Biosciences Clontech, Palo Alto, Calif.) to obtain pGBKT7-HRt in which HRt is fused in-frame to GAL 4 DNA BD (this plasmid is also designated BD-HRt).
Pretransformed human brain […] cDNA Library Screen for HRt interaction partners: Pretransformed human brain […] high-complexity GAL4 cDNA library that has already been amplified and introduced into yeast strain Y187 (MATα) is used to screen for HRt interacting proteins. […] The library host strain Y187 provides a third reporter gene (lacZ) for optional quantification of signal strength. The protocol as described in Clontech user manual (PT3183-1) is used. Briefly, the library is mixed with PJ69-2A strain that has been transformed with the BD-HRt plasmid in YPD medium containing adenine hemisulfate (0.004%) and kanamycin (0.005%) and incubated for 20-24 h at 30° C. The next day, the mating mixture is plated on Leu, Trp, His TDO that selects for two-hybrid interactions, and then the positive clones are screened for growth on Leu, Trp, His, Ade QDO, which is a more stringent condition for interaction. Colonies that grew well on QDO are also screened for lacZ expression by streaking on QDO-Xgal plates. Based on a visual assessment of colonies for the intensity of blue color, the clones are classified into high (H), medium (M), low (L) or very low (VL) categories.
The positive clones are expected to contain an AD-IP (interacting partner) that interacts with BD-HRt. To characterize IP, the sequence of IP is determined and matched to the human genome database. For this purpose, total DNA is isolated from the positive clones and PCR amplified with […] AD LD (long distance)-insert screening amplimers (Catalog No.9103-1; BD Biosciences Clontech, PaloAlto, Calif.). Reaction is conducted in 50 μl volume for 35 cycles using the conditions recommended with the Advantage2 PCR kit (Catalog No. K1910-1; BD Biosciences Clontech, PaloAlto, Calif.).

Q: With “Human Sphingolipid activator protein: human HRt interacting partner, GenBank M60255, SEQ ID NO:16/17 (PLPPPCLLPLPRPPLLPRLGRVVPLHPLQTSPVTGDCSRPRPRWMRWWTS; listed as Homo sapiens)” as the molecule, how does the “XGAL (rate and intensity of coloration of colonies on Xgal)” value (shortened to “XGAL”) read?
A: M (M = Medium blue in 3-5 days)

Q: How did the “XGAL” value turn out when “Human ubiquitous receptor UR: human HRt interacting partner, GenBank E11456, SEQ ID NO:1/2” was run?
A: H/M

Q: With “Human pre-B cell colony enhancing factor (PBEF): human HRt interacting partner, GenBank U02020, SEQ ID NO:55” as the molecule, how does the “XGAL” value read?
A: L (L = Low blue in 5-7 days)

Q: With “Human cDNA: FLJ23187 fis, clone: LNG11989: human HRt interacting partner, GenBank AK026840, SEQ ID NO:78/79” as the molecule, how does the “XGAL” value read?
A: L (L = Low blue in 5-7 days)

Q: How did the “XGAL” value turn out when “Human Thy-1 glycoprotein: human HRt interacting partner, GenBank AF261093, SEQ ID NO:66/67” was run?
A: L (L = Low blue in 5-7 days)

Q: “Human ankyrin repeat containing protein ASB-2: human HRt interacting partner, GenBank AF159164, SEQ ID NO:38/39” was tested. Which “XGAL” value did it give?
A: M (M = Medium blue in 3-5 days)

Q: With “Human tyrosine phosphatase type 1VA, member 2: human HRt interacting partner, GenBank U14603, SEQ ID NO:51/52” as the molecule, how does the “XGAL” value read?
A: L (L = Low blue in 5-7 days)

Q: Which “XGAL” value does the source give for “Human hypothetical protein: human HRt interacting partner, GenBank BC006358, SEQ ID NO:34/35” here?
A: M (M = Medium blue in 3-5 days)

Q: “Human synuclein-beta: human HRt interacting partner, GenBank BC002902, SEQ ID NO:18/19 (FCPTPTATPCRNSPGVTSGGPRPCWARLMEVPQERTRTAWCSTPRLPSRSRSSASVMM; listed as Homo sapiens)” was tested. Which “XGAL” value did it give?
A: M (M = Medium blue in 3-5 days)

Q: With “Human ubiquitin: human HRt interacting partner, GenBank AR075562, SEQ ID NO:70/71 (EKFAPKKQGDGGKDLPTEAKKRAAEFCRGALC; listed as Homo sapiens)” as the molecule, how does the “XGAL” value read?
A: L/VL

Q: “Human C11 protein: human HRt interacting partner, GenBank X81625, SEQ ID NO:20/21” was tested. Which “XGAL” value did it give?
A: M (M = Medium blue in 3-5 days)

Q: With “Human genomic region containing hypervariable mini satellites Chromosome 10[10q26.3]: human HRt interacting partner, GenBank AL096810, SEQ ID NO:64/65 (NMKNRMMWRVMTLEKTRVNIIQTHLLCLLLIQMK; listed as Homo sapiens)” as the molecule, how does the “XGAL” value read?
A: L (L = Low blue in 5-7 days)

Q: Which “XGAL” value does the source give for “HUMFGF1A Human fibroblast growth factor (FGF) receptor-1 mRNA: interacting partner nucleic acid, homology in a 3'-untranslated region, GenBank M34641, SEQ ID NO:92” here?
A: VL (VL = Very Low blue in 10 days)

Q: Which “XGAL” value does the source give for “Human mRNA for C11ORF25 gene: interacting partner nucleic acid, homology in a 3'-untranslated region, GenBank AJ300461, SEQ ID NO:94 (DNA CTATTCGATGATGAAGATACCCCACCAAACCCA; listed as DNA, chemistry not fully specified; the letters are possibly those of the target site)” here?
A: VL (VL = Very Low blue in 10 days)

Q: “Human cDNA FLJ20456 fis clone KAT05827: human HRt interacting partner, GenBank AK000463, SEQ ID NO:74/75” was tested. Which “XGAL” value did it give?
A: L/VL

Q: With B1 as the molecule, how does the “XGAL” value read?
A: M (M = Medium blue in 3-5 days)

Q: Which “XGAL” value does the source give for B2 here?
A: H (H = Intense blue within 2-3 days)

Q: Which “XGAL” value does the source give for B3 here?
A: M (M = Medium blue in 3-5 days)

Q: B4 was tested. Which “XGAL” value did it give?
A: M (M = Medium blue in 3-5 days)

Q: For B5, which “XGAL” value is on record?
A: M (M = Medium blue in 3-5 days)

Q: B6 was tested. Which “XGAL” value did it give?
A: H (H = Intense blue within 2-3 days)
